We go through six molecules from patent publication US20200317768A1 (published 2020).

T1: cynomolgus monkey FcγRIIa1 extracellular domain with C-terminal His-tag (cynomolgus monkey)
T1 construct: Expressed in FreeStyle 293 cells and purified; also called cyno FcγRIIa1; cynoFcgRIIa1; not shown: C-terminal His-tag
T1 chain: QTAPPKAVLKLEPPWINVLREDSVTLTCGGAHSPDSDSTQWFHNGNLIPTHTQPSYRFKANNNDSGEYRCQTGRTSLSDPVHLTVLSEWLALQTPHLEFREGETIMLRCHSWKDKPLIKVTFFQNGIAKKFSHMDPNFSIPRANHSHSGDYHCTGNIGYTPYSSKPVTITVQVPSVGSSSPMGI

T2: cynomolgus monkey FcγRIIa2 extracellular domain with C-terminal His-tag (cynomolgus monkey)
T2 construct: Expressed in FreeStyle 293 cells and purified; also called cyno FcγRIIa2; cynoFcgRIIa2; not shown: C-terminal His-tag
T2 chain: T1 chain with P95T, T121A, I127K, A128S, K130N, D135N, R142Q

T3: cynomolgus monkey FcγRIIa3 extracellular domain with C-terminal His-tag (cynomolgus monkey)
T3 construct: Expressed in FreeStyle 293 cells and purified; also called cyno FcγRIIa3; cynoFcgRIIa3; not shown: C-terminal His-tag
T3 chain: T1 chain with P95T, T121A, A128S, H133P, D135N

T4: cynomolgus monkey FcγRIIb extracellular domain with C-terminal His-tag (cynomolgus monkey)
T4 construct: Expressed in FreeStyle 293 cells and purified; also called cyno FcγRIIb; cynoFcγRIIb; not shown: C-terminal His-tag
T4 chain: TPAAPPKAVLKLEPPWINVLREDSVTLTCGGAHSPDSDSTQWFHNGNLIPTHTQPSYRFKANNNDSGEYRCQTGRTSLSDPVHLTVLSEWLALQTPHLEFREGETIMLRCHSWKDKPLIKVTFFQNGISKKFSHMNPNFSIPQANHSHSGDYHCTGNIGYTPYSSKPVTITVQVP

T5: cynomolgus monkey FcγRIIIaS extracellular domain with C-terminal His-tag (cynomolgus monkey, UniProt Q8SPW2 21-206 at identity 1.00))
T5 construct: Expressed in FreeStyle 293 cells and purified; also called cyno FcγRIIIaS; cynoFcγRIIIaS; not shown: C-terminal His-tag
T5 chain: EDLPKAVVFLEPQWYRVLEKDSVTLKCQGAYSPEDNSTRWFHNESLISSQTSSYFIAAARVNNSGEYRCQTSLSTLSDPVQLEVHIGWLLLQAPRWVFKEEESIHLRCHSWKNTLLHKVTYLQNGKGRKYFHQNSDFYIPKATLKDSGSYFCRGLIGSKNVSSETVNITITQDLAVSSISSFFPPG

T6: human FcγRIIaH extracellular domain with C-terminal His-tag (human, UniProt P12318 34-217)
T6 construct: Expressed in FreeStyle 293 cells and purified; also called human FcγRIIa (type H); FcgRIIaH; not shown: C-terminal His-tag
T6 sequence: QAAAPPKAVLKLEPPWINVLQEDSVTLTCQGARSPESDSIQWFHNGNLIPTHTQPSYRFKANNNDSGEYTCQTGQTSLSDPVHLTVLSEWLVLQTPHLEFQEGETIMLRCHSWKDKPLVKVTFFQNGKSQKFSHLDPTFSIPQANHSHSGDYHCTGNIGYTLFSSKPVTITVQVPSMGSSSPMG

T7: human FcγRIIb extracellular domain with C-terminal His-tag (human, UniProt P31994 43-217)
T7 construct: Expressed in FreeStyle 293 cells and purified; also called humanFcgRIIb; not shown: C-terminal His-tag
T7 sequence: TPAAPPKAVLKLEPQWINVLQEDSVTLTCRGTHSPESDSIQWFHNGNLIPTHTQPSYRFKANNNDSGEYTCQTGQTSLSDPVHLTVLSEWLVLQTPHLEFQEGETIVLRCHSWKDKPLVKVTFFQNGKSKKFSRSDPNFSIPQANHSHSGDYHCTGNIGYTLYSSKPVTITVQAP

B1: M103205H795-MY172 / M103202L889-SK1 (antibody, human IgG1, kappa)
heavy: QVTLKESGPVLVKPTETLTLTCTVSGIDLSHDDISWVRQAPGKGLEWVGIISYAGSTYYASWAKGRLTISKDTSKNQVVLTMTNMDPVDTATYYCARGVPAYSHGGDLWGQGTLVTVSSASTKGPSVFPLAPSSKSTSGGTAALGCLVKDYFPEPVTVSWNSGALTSGVHTFPAVLQSSGLYSLSSVVTVPSSSLGTQTYICNVNHKPSNTKVDKKVEPKSCDKTHTCPPCPAPELLNGPSVFLFPPKPKDTLMISRTPEVTCVVVDVSEEDPEVKFNWYVDGVEVHNAKTKPREEQYNSTYRVVSVLTVLHQDWLNGKEYKCKVSNKALPAPIEKTISKAKGQPREPQVYTLPPSREEMTKNQVSLTCLVKGFYPSDIAVEWESNGQPENNYKTTPGVLDSDGSFFLYSKLTVDKSRWQQGNVFSCSVMHEALHNHYTQKSLSLSP
light: DIVMTQSPATLSLSPGERATLSCTSSQSVYHANWLSWFQQKPGQPPKLLIYWASTLAYGVPSRFSGSGSGTDFTLTISSLQPEDAATYYCAGGYGGGRYAFGQGTKVEIKRTVAAPSVFIFPPSDEQLKSGTASVVCLLNNFYPREAKVQWKVDNALQSGNSQESVTEQDSKDSTYSLSSTLTLSKADYEKHKVYACEVTHQGLSSPVTKSFNRGEC
notes: Position 396 variant derived from MY052, expressed with M103202L889-SK1 as light chain
B2: M103205H795-MY176 / M103202L889-SK1 (antibody, human IgG1, kappa)
heavy: B1 heavy with G398L
light: B1 light
notes: as for B1
B3: M103205H795-MY177 / M103202L889-SK1 (antibody, human IgG1, kappa)
heavy: B1 heavy with G398N
light: B1 light
notes: as for B1
B4: M103205H795-MY173 / M103202L889-SK1 (antibody, human IgG1, kappa)
heavy: B1 heavy with G398H
light: B1 light
notes: as for B1
B5: M103205H795-MY174 / M103202L889-SK1 (antibody, human IgG1, kappa)
heavy: B1 heavy with G398I
light: B1 light
notes: as for B1
B6: M103205H795-MY175 / M103202L889-SK1 (antibody, human IgG1, kappa)
heavy: B1 heavy with G398K
light: B1 light
notes: as for B1

Where a chain is given by its changes, count along the chain named.

T8 sequence (P08637 17-208 F176V): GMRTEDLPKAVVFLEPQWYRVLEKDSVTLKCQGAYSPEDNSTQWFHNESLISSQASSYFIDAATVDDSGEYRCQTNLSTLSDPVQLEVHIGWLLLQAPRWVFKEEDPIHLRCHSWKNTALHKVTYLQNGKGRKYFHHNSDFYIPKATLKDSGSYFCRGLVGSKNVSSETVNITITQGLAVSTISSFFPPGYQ

The target in the first experiment is T1, cynomolgus monkey FcγRIIa1 …. Description: SPR (Biacore); KD of SG1 divided by KD of the variant for this FcgR.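 Note: relative to parent M103205H795-SG1 carrying the SG1 human heavy chain constant region.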 As for the experimental part: (§1) The kinetic analysis of interactions between these antibodies and FcγR was carried out using BIACORE® T200 or BIACORE® 4000 (GE Healthcare). HBS-EP+ (GE Healthcare) was used as the running buffer, and the measurement temperature was set to 25° C. A chip produced by immobilizing Protein A. Protein A/G or mouse anti-human IgG kappa light chain (BD Biosciences) onto a Series S Sensor Chip CM4 or CM5 (GE Healthcare) by the amine-coupling method was used. […] After the measurement, the antibody captured on the chip was washed off by allowing reaction with 10 mM glycine-HCl, pH1.5 and 25 mM NaOH so that the chip was regenerated and used repeatedly. The sensorgrams obtained as measurement results were analyzed by the 1:1 Langmuir binding model using the BIACORE® Evaluation Software to calculate the binding rate constant ka (L/mol/s) and dissociation rate constant kd (l/s), and the dissociation constant KD (mol/L) was calculated from these values. […] Regarding such interactions, KD values were calculated using the following 1:1 binding model described in BIACORE® T100 Software Handbook BR1006-48 Edition AE.
(§2) The resultant variants were expressed using M103202L889-SK1 as light chain and their affinity to human and cynoFcγRs were evaluated (Table 20).
Turning to B1, the “KD fold (SG1 = 1)” value was determined as 1.2 fold.

Regarding B2, the “KD fold (SG1 = 1)” value was 2.5 fold.

As to B3, the “KD fold (SG1 = 1)” value was 1.7 fold.

On to B4, for which the “KD fold (SG1 = 1)” value stood at 1.9 fold.

For the molecule B5, the “KD fold (SG1 = 1)” value was determined as 2.1 fold.

B6: the “KD fold (SG1 = 1)” value was 2.3 fold.

The next experiment has as its target T2, cynomolgus monkey FcγRIIa2 …. Described as above. As to the method: as §1, §2
Take B1: the “KD fold (SG1 = 1)” value is 1.5 fold.

With B2, the “KD fold (SG1 = 1)” value came out at 3.6 fold.

In the case of B3, the “KD fold (SG1 = 1)” value worked out at 2.8 fold.

As for B4, the “KD fold (SG1 = 1)” value was determined as 2.8 fold.

As to B5, the “KD fold (SG1 = 1)” value came to 3.2 fold.

In the case of B6, the “KD fold (SG1 = 1)” value is 3.4 fold.

A further experiment concerns the target T3, cynomolgus monkey FcγRIIa3 …. The description is as above. As for the experimental part:
as §1, §2
B1: the “KD fold (SG1 = 1)” value amounted to 1.5 fold.

As for B2, the “KD fold (SG1 = 1)” value came out at 2.8 fold.

For B3, the “KD fold (SG1 = 1)” value turned out to be 2.1 fold.

With B4, the “KD fold (SG1 = 1)” value came out at 2.1 fold.

Turning to B5, the “KD fold (SG1 = 1)” value is 2.7 fold.

For the molecule B6, the “KD fold (SG1 = 1)” value worked out at 2.5 fold.

In a further experiment the target is T4, cynomolgus monkey FcγRIIb extracellular …. The experiment is described as above. As to the method:
as §1, §2
Take B1: the “KD fold (SG1 = 1)” value was 1.5 fold.

Turning to B2, the “KD fold (SG1 = 1)” value was determined as 3 fold.

Regarding B3, the “KD fold (SG1 = 1)” value was 2.2 fold.

As for B4, the “KD fold (SG1 = 1)” value stood at 2.3 fold.

Consider B5, for which the “KD fold (SG1 = 1)” value worked out at 2.8 fold.

With B6, the “KD fold (SG1 = 1)” value came out at 2.5 fold.

A further experiment has as its target T5, cynomolgus monkey FcγRIIIaS …. Described as above. As for the experimental part: as §1, §2
With B1, the “KD fold (SG1 = 1)” value turned out to be 0.11 fold.

For the molecule B2, the “KD fold (SG1 = 1)” value worked out at 0.16 fold.

For the molecule B3, the “KD fold (SG1 = 1)” value amounted to 0.12 fold.

Take B4: the “KD fold (SG1 = 1)” value came out at 0.12 fold.

As for B5, the “KD fold (SG1 = 1)” value stood at 0.14 fold.

B6: the “KD fold (SG1 = 1)” value was 0.14 fold.

The target of a further experiment is T6, human FcγRIIaH extracellular domain …. Described as above. As to the method: as §1, §2
Take B1: the “KD fold (SG1 = 1)” value was determined as 0.4 fold.

Turning to B2, the “KD fold (SG1 = 1)” value was 1 fold.

Consider B3, for which the “KD fold (SG1 = 1)” value was found to be 0.7 fold.

B4: the “KD fold (SG1 = 1)” value was 0.7 fold.

Consider B5, for which the “KD fold (SG1 = 1)” value came out at 0.9 fold.

Take B6: the “KD fold (SG1 = 1)” value stood at 0.8 fold.

The next experiment deals with T7, human FcγRIIb extracellular domain with …. The experiment is described as above. As to the method: as §1, §2
Turning to B1, the “KD fold (SG1 = 1)” value amounted to 2.6 fold.

As to B2, the “KD fold (SG1 = 1)” value was 6.6 fold.

B3: the “KD fold (SG1 = 1)” value worked out at 4.2 fold.

Take B4: the “KD fold (SG1 = 1)” value stood at 4.6 fold.

On to B5, for which the “KD fold (SG1 = 1)” value was 5.4 fold.

As for B6, the “KD fold (SG1 = 1)” value amounted to 5.5 fold.

The next experiment addresses T8, human FcγRIIIaV extracellular domain with C-terminal His-tag (human, UniProt P08637 17-208).
T8 construct: Expressed in FreeStyle 293 cells and purified; also called FcgRIIIaV; not shown: C-terminal His-tag
The description is as above. As to the method:
as §1, §2
In the case of B1, the “KD fold (SG1 = 1)” value came to 0.12 fold.

On to B2, for which the “KD fold (SG1 = 1)” value was found to be 0.13 fold.

For B3, the “KD fold (SG1 = 1)” value is 0.13 fold.

As for B4, the “KD fold (SG1 = 1)” value was 0.12 fold.

On to B5, for which the “KD fold (SG1 = 1)” value amounted to 0.12 fold.

In the case of B6, the “KD fold (SG1 = 1)” value stood at 0.11 fold.
